Reference: publication PMC4070431

Experiments:
[1] = biological target: human natriuretic peptide receptor-A (NPR-A) (human) (UniProt P16066)
[2] = biological target: human natriuretic peptide receptor-B (NPR-B) (human) (UniProt P20594)
[3] = biological target: human natriuretic peptide receptor-A (NPR-A) (human) (UniProt P16066); test: radioligand binding
[4] = biological target: human natriuretic peptide receptor-C (NPR-C) (human) (UniProt P17342); test: radioligand binding
[5] = biological target: non-selective somatostatin receptor (sst)

Sequence of human natriuretic peptide receptor-A (NPR-A) (human) (P16066 33-1061): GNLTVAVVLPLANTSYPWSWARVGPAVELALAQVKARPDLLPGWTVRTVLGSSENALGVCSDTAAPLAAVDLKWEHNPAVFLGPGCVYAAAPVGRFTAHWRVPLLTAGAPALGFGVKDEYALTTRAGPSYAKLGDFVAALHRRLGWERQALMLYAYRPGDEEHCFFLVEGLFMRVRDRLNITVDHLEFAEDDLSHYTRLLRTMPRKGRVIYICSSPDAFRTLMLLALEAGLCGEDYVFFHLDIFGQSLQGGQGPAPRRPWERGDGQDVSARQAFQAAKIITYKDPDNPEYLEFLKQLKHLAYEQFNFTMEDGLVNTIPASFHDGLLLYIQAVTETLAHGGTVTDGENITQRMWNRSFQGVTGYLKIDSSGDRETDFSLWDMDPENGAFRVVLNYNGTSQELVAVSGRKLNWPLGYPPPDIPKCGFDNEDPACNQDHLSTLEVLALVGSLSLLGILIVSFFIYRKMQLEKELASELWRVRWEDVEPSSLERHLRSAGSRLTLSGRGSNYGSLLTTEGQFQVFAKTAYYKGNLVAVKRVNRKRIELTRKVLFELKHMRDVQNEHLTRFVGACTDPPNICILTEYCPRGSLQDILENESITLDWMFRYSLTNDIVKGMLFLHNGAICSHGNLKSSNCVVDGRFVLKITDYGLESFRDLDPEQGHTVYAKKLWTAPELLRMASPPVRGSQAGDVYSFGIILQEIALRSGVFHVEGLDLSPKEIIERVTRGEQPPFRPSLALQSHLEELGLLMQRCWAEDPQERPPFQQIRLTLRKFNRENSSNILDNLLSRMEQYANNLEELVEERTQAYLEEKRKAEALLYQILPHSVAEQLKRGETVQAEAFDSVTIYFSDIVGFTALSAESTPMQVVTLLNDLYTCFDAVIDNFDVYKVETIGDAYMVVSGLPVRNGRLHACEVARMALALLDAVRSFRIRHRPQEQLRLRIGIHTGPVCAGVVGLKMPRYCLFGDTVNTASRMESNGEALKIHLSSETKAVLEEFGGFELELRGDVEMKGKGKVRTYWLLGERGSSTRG
Sequence of human natriuretic peptide receptor-C (NPR-C) (human) (P17342 27-541): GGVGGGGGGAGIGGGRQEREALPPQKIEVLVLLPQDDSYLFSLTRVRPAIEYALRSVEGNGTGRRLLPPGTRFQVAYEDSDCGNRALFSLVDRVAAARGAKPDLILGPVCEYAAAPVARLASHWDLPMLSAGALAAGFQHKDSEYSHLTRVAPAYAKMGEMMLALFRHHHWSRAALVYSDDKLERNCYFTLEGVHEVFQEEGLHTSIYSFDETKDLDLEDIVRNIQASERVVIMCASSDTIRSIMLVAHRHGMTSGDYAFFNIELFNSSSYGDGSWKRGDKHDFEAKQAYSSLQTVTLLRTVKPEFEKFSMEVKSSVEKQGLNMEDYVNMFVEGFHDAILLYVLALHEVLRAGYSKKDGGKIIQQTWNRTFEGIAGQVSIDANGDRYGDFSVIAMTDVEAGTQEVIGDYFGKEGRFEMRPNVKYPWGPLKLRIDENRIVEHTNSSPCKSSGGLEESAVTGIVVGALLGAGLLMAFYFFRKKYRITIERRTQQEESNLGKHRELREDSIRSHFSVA
Sequence of human natriuretic peptide receptor-B (NPR-B) (human) (P20594 23-1047): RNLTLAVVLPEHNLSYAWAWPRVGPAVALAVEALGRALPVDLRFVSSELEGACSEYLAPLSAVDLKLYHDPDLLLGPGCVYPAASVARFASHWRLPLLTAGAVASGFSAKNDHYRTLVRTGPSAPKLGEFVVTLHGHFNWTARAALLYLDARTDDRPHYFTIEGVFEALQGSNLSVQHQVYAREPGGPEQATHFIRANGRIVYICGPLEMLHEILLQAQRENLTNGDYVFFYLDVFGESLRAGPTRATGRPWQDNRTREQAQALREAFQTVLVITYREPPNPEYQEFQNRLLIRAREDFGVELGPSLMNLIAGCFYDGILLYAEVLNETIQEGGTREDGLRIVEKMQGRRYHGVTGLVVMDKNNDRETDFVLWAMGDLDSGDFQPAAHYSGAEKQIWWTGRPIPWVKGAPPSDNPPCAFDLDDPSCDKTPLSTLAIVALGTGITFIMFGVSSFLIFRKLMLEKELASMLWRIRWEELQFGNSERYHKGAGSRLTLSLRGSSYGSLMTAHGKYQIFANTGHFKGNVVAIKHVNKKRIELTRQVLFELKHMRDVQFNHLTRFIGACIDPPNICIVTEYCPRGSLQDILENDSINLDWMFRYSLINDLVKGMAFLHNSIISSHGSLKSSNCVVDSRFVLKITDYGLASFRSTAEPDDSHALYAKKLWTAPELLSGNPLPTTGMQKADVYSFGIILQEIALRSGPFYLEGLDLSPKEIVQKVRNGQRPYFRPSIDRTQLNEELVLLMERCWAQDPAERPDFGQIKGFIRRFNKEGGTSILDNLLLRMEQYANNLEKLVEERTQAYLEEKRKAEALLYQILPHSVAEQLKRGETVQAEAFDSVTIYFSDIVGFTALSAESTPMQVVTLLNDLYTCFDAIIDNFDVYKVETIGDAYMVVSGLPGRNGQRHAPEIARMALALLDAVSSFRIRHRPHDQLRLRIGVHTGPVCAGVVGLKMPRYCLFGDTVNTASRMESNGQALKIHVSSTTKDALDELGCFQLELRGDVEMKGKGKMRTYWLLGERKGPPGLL

| cGMP generation in HEK293 cells expressing the receptor, EC50 [1] | cGMP generation in HEK293 cells expressing the receptor, Emax [1] | cGMP generation in HEK293 cells expressing the receptor (up to 10 µM), Emax [2] | Ki [3] | Ki [4] | Ki [5] | Substance |
| --- | --- | --- | --- | --- | --- | --- |
| 2 nM | 96 % hANP | 9 % hCNP | 3 nM | 0.7 nM | – | human brain natriuretic peptide (hBNP) (ligand) |
| – | – | – | – | – | 4200 nM | PL-3994 (Hept-cyclo(Cys-His-Phe-D-Ala-Gly-Arg-D-Nle-Asp-Arg-Ile-Ser-Cys)-Tyr-[Arg mimetic]-NH2) (peptide) |
